From article PMC4636054 come the findings set out here.

In this data set the target is LlaBIII (UniProt A0A0M3KL05 1-1578). The experiment in a line: X-ray crystallography.

B1: LlaBIII 28 bp DNA (dsDNA)
DNA 1: GCTCTAGCTAATAGACTGAGCCGAGGTG
DNA 2: CACCTCGGCTCAGTCTATTAGCTAGAGC
Consider B1, for which the binding result is “binds”.
